Assay results taken from patent US20210403506A1 (XDCEXPLORER SHANGHAI, published 2021).
Square brackets hold non-standard residues; d marks the D form. Ends that are not written are not given here. * marks the point of attachment. Pro(diF) = difluoro-proline, as coded in the source; DiMe = N,N-dimethyl (N-terminal dimethylation); PEG8 = NCCOCCOCCOCCOCCOCCOCCOCCOCCC(=O)O; dOic = O=C(O)[C@H]1C[C@H]2CCCC[C@H]2N1; 1Nal = N[C@@H](Cc1cccc2ccccc12)C(=O)O; 2Nal = N[C@@H](Cc1ccc2ccccc2c1)C(=O)O; dNMeY = CN[C@H](Cc1ccc(O)cc1)C(=O)O; Hydrocinnamoyl = O=C(CCc1ccccc1)*; NMehLeu = CN[C@@H](CCC(C)C)C(=O)O; Palmitoyl = CCCCCCCCCCCCCCCC(=O)*; NMeF = CN[C@@H](Cc1ccccc1)C(=O)O; Myristoyl = CCCCCCCCCCCCCC(=O)*; Tic = O=C(O)[C@@H]1Cc2ccccc2CN1; dTic = O=C(O)[C@H]1Cc2ccccc2CN1; NMeL = CN[C@@H](CC(C)C)C(=O)O; Lauroyl = CCCCCCCCCCCC(=O)*; NHoSer = not defined here; NMeS = CN[C@@H](CO)C(=O)O; hSer = N[C@@H](CCO)C(=O)O; Hexanoyl = CCCCCC(=O)*; βAla = NCCC(=O)O

T1: human Chemokine like receptor 1 (human, UniProt Q99788 1-373)
T1 sequence (looked up): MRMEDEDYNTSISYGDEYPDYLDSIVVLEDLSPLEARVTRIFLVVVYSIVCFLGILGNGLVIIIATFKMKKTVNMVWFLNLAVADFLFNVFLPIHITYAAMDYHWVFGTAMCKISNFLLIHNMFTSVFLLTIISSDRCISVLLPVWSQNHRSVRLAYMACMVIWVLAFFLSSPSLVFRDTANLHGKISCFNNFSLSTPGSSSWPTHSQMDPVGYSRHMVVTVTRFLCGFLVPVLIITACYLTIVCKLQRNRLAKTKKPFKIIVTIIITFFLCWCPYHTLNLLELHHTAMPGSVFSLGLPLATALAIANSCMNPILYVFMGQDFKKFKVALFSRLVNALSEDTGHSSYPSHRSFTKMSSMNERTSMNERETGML

B1: YW-163 (peptide)
peptide: [dNMeY]F[NMeL]P[dS]QF[dA][Tic]S-OH
modifications: N-terminus assumed
SMILES: CN[C@H](Cc1ccc(O)cc1)C(=O)N[C@@H](Cc1ccccc1)C(=O)N(C)[C@@H](CC(C)C)C(=O)N1CCC[C@H]1C(=O)N[C@H](CO)C(=O)N[C@@H](CCC(N)=O)C(=O)N[C@@H](Cc1ccccc1)C(=O)N[C@H](C)C(=O)N1Cc2ccccc2C[C@H]1C(=O)N[C@@H](CO)C(=O)O
B2: YW-172 (peptide)
peptide: [dY]F[NMeL]P[dS]QF[dA][Tic][NHoSer]-OH
modifications: reading uncertain; also: printed as (D-Tyr)-Phe-(NMe-Leu)-Pro-(D-Ser)-Gln-Phe-(D-Ala)-Tic-(NHoSer)
B3: YW-101 (peptide)
peptide: [dY]F[NMehLeu]P[dS]QF[dA][Tic]S-OH
modifications: N-terminus assumed
SMILES: CC(C)CC[C@@H](C(=O)N1CCC[C@H]1C(=O)N[C@H](CO)C(=O)N[C@@H](CCC(N)=O)C(=O)N[C@@H](Cc1ccccc1)C(=O)N[C@H](C)C(=O)N1Cc2ccccc2C[C@H]1C(=O)N[C@@H](CO)C(=O)O)N(C)C(=O)[C@H](Cc1ccccc1)NC(=O)[C@H](N)Cc1ccc(O)cc1
B4: YW-171 (peptide)
peptide: [dY]F[NMeL]P[dS]QF[dA][Tic][hSer]-OH
modifications: N-terminus assumed
SMILES: CC(C)C[C@@H](C(=O)N1CCC[C@H]1C(=O)N[C@H](CO)C(=O)N[C@@H](CCC(N)=O)C(=O)N[C@@H](Cc1ccccc1)C(=O)N[C@H](C)C(=O)N1Cc2ccccc2C[C@H]1C(=O)N[C@@H](CCO)C(=O)O)N(C)C(=O)[C@H](Cc1ccccc1)NC(=O)[C@H](N)Cc1ccc(O)cc1
B5: YW-165 (peptide)
peptide: [dY]F[NMeL]P[dS]Q[1Nal][dA][Tic]S-OH
modifications: N-terminus assumed
SMILES: CC(C)C[C@@H](C(=O)N1CCC[C@H]1C(=O)N[C@H](CO)C(=O)N[C@@H](CCC(N)=O)C(=O)N[C@@H](Cc1cccc2ccccc12)C(=O)N[C@H](C)C(=O)N1Cc2ccccc2C[C@H]1C(=O)N[C@@H](CO)C(=O)O)N(C)C(=O)[C@H](Cc1ccccc1)NC(=O)[C@H](N)Cc1ccc(O)cc1
B6: YW-105 (peptide)
peptide: [dY][NMeF][NMeL]P[dS]QF[dA][Tic]S-OH
modifications: N-terminus assumed
SMILES: CC(C)C[C@@H](C(=O)N1CCC[C@H]1C(=O)N[C@H](CO)C(=O)N[C@@H](CCC(N)=O)C(=O)N[C@@H](Cc1ccccc1)C(=O)N[C@H](C)C(=O)N1Cc2ccccc2C[C@H]1C(=O)N[C@@H](CO)C(=O)O)N(C)C(=O)[C@H](Cc1ccccc1)N(C)C(=O)[C@H](N)Cc1ccc(O)cc1
B7: YW-166 (peptide)
peptide: [dY]F[NMeL]P[dS]QF[dA][Tic][NMeS]-OH
modifications: N-terminus assumed
SMILES: CC(C)C[C@@H](C(=O)N1CCC[C@H]1C(=O)N[C@H](CO)C(=O)N[C@@H](CCC(N)=O)C(=O)N[C@@H](Cc1ccccc1)C(=O)N[C@H](C)C(=O)N1Cc2ccccc2C[C@H]1C(=O)N(C)[C@@H](CO)C(=O)O)N(C)C(=O)[C@H](Cc1ccccc1)NC(=O)[C@H](N)Cc1ccc(O)cc1
B8: YW-167 (peptide)
peptide: [dNMeY]F[NMeL]P[dS]Q[2Nal][dA][Tic]S-OH
modifications: N-terminus assumed
SMILES: CN[C@H](Cc1ccc(O)cc1)C(=O)N[C@@H](Cc1ccccc1)C(=O)N(C)[C@@H](CC(C)C)C(=O)N1CCC[C@H]1C(=O)N[C@H](CO)C(=O)N[C@@H](CCC(N)=O)C(=O)N[C@@H](Cc1ccc2ccccc2c1)C(=O)N[C@H](C)C(=O)N1Cc2ccccc2C[C@H]1C(=O)N[C@@H](CO)C(=O)O
B9: YW-100 (peptide)
peptide: [dY]F[NMeF]P[dS]QF[dA][Tic]S-OH
modifications: N-terminus assumed
SMILES: C[C@@H](NC(=O)[C@H](Cc1ccccc1)NC(=O)[C@H](CCC(N)=O)NC(=O)[C@@H](CO)NC(=O)[C@@H]1CCCN1C(=O)[C@H](Cc1ccccc1)N(C)C(=O)[C@H](Cc1ccccc1)NC(=O)[C@H](N)Cc1ccc(O)cc1)C(=O)N1Cc2ccccc2C[C@H]1C(=O)N[C@@H](CO)C(=O)O
B10: YW-168 (peptide)
peptide: [dNMeY]F[NMeL]P[dS]Q[1Nal][dA][Tic]S-OH
modifications: N-terminus assumed
SMILES: CN[C@H](Cc1ccc(O)cc1)C(=O)N[C@@H](Cc1ccccc1)C(=O)N(C)[C@@H](CC(C)C)C(=O)N1CCC[C@H]1C(=O)N[C@H](CO)C(=O)N[C@@H](CCC(N)=O)C(=O)N[C@@H](Cc1cccc2ccccc12)C(=O)N[C@H](C)C(=O)N1Cc2ccccc2C[C@H]1C(=O)N[C@@H](CO)C(=O)O
B11: YW-190 (peptide)
peptide: [dY]F[NMeL]P[dS]QF[dA]XS-NH2
modifications: not fully specified (residue 9); printed as (D-Tyr)-Phe-(NMe-Leu)-Pro-(D-Ser)-Gln-Phe-(D-Ala)-Tic-Ser-NH2
B12: YW-164 (peptide)
peptide: [dY]F[NMeL]P[dS]Q[2Nal][dA][Tic]S-OH
modifications: N-terminus assumed
SMILES: CC(C)C[C@@H](C(=O)N1CCC[C@H]1C(=O)N[C@H](CO)C(=O)N[C@@H](CCC(N)=O)C(=O)N[C@@H](Cc1ccc2ccccc2c1)C(=O)N[C@H](C)C(=O)N1Cc2ccccc2C[C@H]1C(=O)N[C@@H](CO)C(=O)O)N(C)C(=O)[C@H](Cc1ccccc1)NC(=O)[C@H](N)Cc1ccc(O)cc1

target: T1, human Chemokine like receptor 1; assay: cell-based or functional assay

First: B1
Second: B2
The “EC50 (µM), activation of Tango CMKLR1-bla U2OS cells” value (“EC50 (µM), activation” for short) of the first is 2.6-fold lower: 0.0022 µM for the first, 0.0058 µM for the second.

Compared with B3, {Myristoyl-PEG8}-[βAla][βAla][dNMeY]F[NMeL]P[dS]Q[2Nal][dA][Tic][NMeS] [YW-180] is 2.1-fold lower in “EC50 (µM), activation” value: 0.0029 µM for the first, 0.0014 µM for the second.

Going from DiMe-[dY]F[NMeL]P[dS]QF[dA][Tic]S [YW-192] to [dY]F[NPrL]P[dS]QF[dA][Tic]S [YW-184], the “EC50 (µM), activation” value rises from 0.0026 µM to 0.016 µM (6.2-fold).

Going from [dY]F[NEtL]P[dS]QF[dA][Tic]S [YW-183] to B4, the “EC50 (µM), activation” value rises from 0.0092 µM to 0.029 µM (3.2-fold).

Compared with B5, B6 is 7.1-fold higher in “EC50 (µM), activation” value: 0.0015 µM for the first, 0.0106 µM for the second.

Compared with {Lauroyl-PEG8}-[βAla][βAla][dNMeY]F[NMeL]P[dS]Q[2Nal][dA][Tic][NMeS] [YW-181], B7 is 2.3-fold higher in “EC50 (µM), activation” value: 0.0022 µM for the first, 0.005 µM for the second.

First: B8
Second: [dY]F[NMeL]P[dS]QF[dA][dOic]S-OH [YW-176]
The “EC50 (µM), activation” value of the first is 4.8-fold lower: 0.0008 µM for the first, 0.0038 µM for the second.

Compared with [dY]F[NMeL]P[dS]QF[dA][Tic][NMeHoSer]-OH [YW-177], Hexanoyl-[dY]F[NMeL]P[dS]QF[dA][Tic]S [YW-193] is 18-fold lower in “EC50 (µM), activation” value: 0.025 µM for the first, 0.0014 µM for the second.

Compared with {2‑cyclohexylacetyl}-[dY]F[NMeL]P[dS]QF[dA][Tic]S [YW-194], B9 is 35-fold higher in “EC50 (µM), activation” value: 0.0012 µM for the first, 0.042 µM for the second.

Compared with Hydrocinnamoyl-[dY]F[NEtL]P[dS]QF[dA][Tic]S [YW-185], B10 is 4.9-fold lower in “EC50 (µM), activation” value: 0.0059 µM for the first, 0.0012 µM for the second.

B11 and {Palmitoyl-PEG8}-GG[dNMeY]F[NMeL]P[dS]Q[2Nal][dA][Tic][NMeS] [YW-178] are within 1.5-fold of each other in “EC50 (µM), activation” value: 0.0027 µM for the first, 0.0021 µM for the second.

First: [dY]F[NMeL][Pro(diF)][dS]QF[dA][Tic]S-OH [YW-174]
Second: [dY]F[NMeL]P[dS]QF[dA][dTic][NMeS] [YW-182]
The “EC50 (µM), activation” value of the first is 34-fold lower: 0.0012 µM for the first, 0.041 µM for the second.

Compared with Hydrocinnamoyl-[dY]F[NPrL]P[dS]QF[dA][Tic]S [YW-186], B12 is 10-fold lower in “EC50 (µM), activation” value: 0.011 µM for the first, 0.0011 µM for the second.

Going from {Palmitoyl-PEG8}-[βAla][βAla][dNMeY]F[NMeL]P[dS]Q[2Nal][dA][Tic][NMeS] [YW-179] to [dY]F[NMeL]P[dHoSer]QF[dA][Tic]S-OH [YW-175], the “EC50 (µM), activation” value rises from 0.0021 µM to 0.091 µM (43-fold).
